Experimental data taken from US20230118024A1 (Chugai, published 2023).
Read-outs that look alike come from different tables or passages of the source.

B1: DQN0225dd (antibody, human IgG1, kappa, V domains shown)
VH: QSLEESGGGLVKPGGTLTLTCTASGFSFSSAYYMCWVRQAPGKGLEWIACIYVGSGSTYYASWAQGRCTISKASSTTVTLQMTSLTAADTATYFCARDPLIYYYYGELNLWGPGTLVTVSS
VL: AVVLTQTASPVSAPVGGTVTIKCQASEDISSNLAWYQQKPGQRPKVLIYSASTLASGVSSQFKGSGSGTQFTLTISDLECADAATYYCQSYYDISSVTFGGGTKVEIKR
notes: also called DQN0225Hd; DQN0225Ld
B2: DQN0271hh (antibody, human IgG1, kappa, V domains shown)
VH: QSLEESGGGLVKPGASLTLTCKASGFSFSSGYYMCWVRQAPGKGLEWIACIYAGSPDLTYYATWAKGRLTISTTSSTTVTLQLTSLTAADTATYFCARDPGNWGGYDDVRLWGPGTLVTVSS
VL: AQVLTQTPSPVSAAVGGTVTISCQSSQSIYSNYLSWFQQKTGQPPKLLIYRASTLASGVPSRFKGSGSGTEFTLTISGVECDDAATYYCQGYYSGAIWTFGGGTKVEIKR
notes: also called DQN0271Lh
B3: DQN0334bb (antibody, human IgG1, kappa, V domains shown)
VH: QQQLEESGGDLVQPEGSLTLTCKASGFDFSFNAMCWVRQAPGRGPEWIACIYNGNGSTYYASWAKGRFTISKTSSTSVTLQMTSLTAADTATYFCARGGYGLGYAGYGDVNYFNLWGPGTLVTVSS
VL: AVVLTQTASPVSAPVGGTVTIKCQASEDIYFLLAWYRQKPGQPPKLLIYGASTLASGVPSRFKGSGSGTEYTLTISDLECADAATYYCQSYWYGDSGPNTFGGGTKVEIKR
notes: also called DQN0334Hb; DQN0334Lb
B4: DQN0324hh (antibody, human IgG1, kappa, V domains shown)
VH: QSLEESGGDLVKPGASLALTCTASGFSLINNYYMCWVRQAPGKGLEWIACIYAGLGGWTYYASWAKGRFTISKTSSTTVTLQMSSLTVADAATYFCARAATTYYHFNLWGPGTLVTVSS
VL: AVVLTQTESPVSAAVGDTVTIKCQASQSIGNALAWYQQKPGQPPKLLIYDASTLASGVPSRFKGSGSGTQFTLTISDLECADAATYYCQSYDYGSSADTYTFGGGTKVEIKR
notes: also called DQN0324Lh
B5: DQN0282ff (antibody, human IgG1, kappa, V domains shown)
VH: QSVEESGGRLVTPGTPLTLSCKASGFDFSIYYMSWVRQAPGKGLEWIGVINSGGGVTWYASWVKGRFTISKTSTTVDLKITSPTTEDTATYFCARLGDSNHYDLWGPGTLVTVSS
VL: AYDMTQTPSSVSAAVGGTVTIKCQASETISSYLAWYQQKPGQRPQLLIYDASNLASGVPSRFKGSGSGTEFTLTISDLECADAATYYCQTHYYITSTTFGGGTKVEIKR
notes: also called DQN0282Hf; DQN0282Lf

Columns and labels:
[1] = molecular target: T1, HLA-DQ2.5/33mer gliadin peptide complex on Ba/F3 cells (human; wheat); assay: FACS
T1 construct: also called Ba/F3-HLA-DQ2.5/33mer gliadin peptide; HLA-DQ2.5/gliadin peptide complex

[2] = molecular target: T2, HLA-DQ2.5/CLIP peptide complex on Ba/F3 cells (human); assay: FACS
T2 construct: also called Ba/F3-HLA-DQ2.5/CLIP peptide

[3] = molecular target: T3, HLA-DQ2.5 on Ba/F3 cells (not in the form of a complex with a linked peptide) (human, UniProt P01909 24-254; P01920 33-261); assay: FACS
T3 construct: also called Ba/F3-HLA-DQ2.5; No peptide
T3 MHC II alpha: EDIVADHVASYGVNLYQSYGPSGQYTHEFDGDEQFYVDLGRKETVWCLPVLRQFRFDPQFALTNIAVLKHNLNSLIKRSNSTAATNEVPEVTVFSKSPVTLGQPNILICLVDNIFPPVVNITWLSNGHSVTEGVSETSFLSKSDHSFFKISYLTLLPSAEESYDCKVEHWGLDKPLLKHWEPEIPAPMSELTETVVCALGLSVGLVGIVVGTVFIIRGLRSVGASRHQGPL
T3 MHC II beta: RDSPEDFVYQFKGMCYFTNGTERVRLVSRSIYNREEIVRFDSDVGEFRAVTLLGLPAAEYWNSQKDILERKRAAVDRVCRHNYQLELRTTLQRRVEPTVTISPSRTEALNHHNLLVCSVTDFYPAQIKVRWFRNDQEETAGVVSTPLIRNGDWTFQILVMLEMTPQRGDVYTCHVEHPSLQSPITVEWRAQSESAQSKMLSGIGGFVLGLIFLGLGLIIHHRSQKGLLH

[4] = molecular target: T4, HLA-DQ2.5/alpha 1 gliadin peptide complex on Ba/F3 cells (human; wheat); assay: FACS
T4 construct: also called Ba/F3-HLA-DQ2.5/alpha 1 gliadin peptide

[5] = molecular target: T5, HLA-DQ2.5/alpha 1b gliadin peptide complex on Ba/F3 cells (human; wheat); assay: FACS
T5 construct: also called Ba/F3-HLA-DQ2.5/alpha 1b gliadin peptide

[6] = molecular target: T6, HLA-DQ2.5/alpha 2 gliadin peptide complex on Ba/F3 cells (human; wheat); assay: FACS
T6 construct: also called Ba/F3-HLA-DQ2.5/alpha 2 gliadin peptide

[7] = molecular target: T7, HLA-DQ2.5/omega 1 gliadin peptide complex on Ba/F3 cells (human; wheat); assay: FACS
T7 construct: also called Ba/F3-HLA-DQ2.5/omega 1 gliadin peptide

[8] = molecular target: T8, HLA-DQ2.5/omega 2 gliadin peptide complex on Ba/F3 cells (human; wheat); assay: FACS
T8 construct: also called Ba/F3-HLA-DQ2.5/omega 2 gliadin peptide

[9] = molecular target: T9, HLA-DQ2.5/secalin 1 peptide complex on Ba/F3 cells (human; rye); assay: FACS
T9 construct: also called Ba/F3-HLA-DQ2.5/secalin 1 peptide

[10] = molecular target: T10, HLA-DQ2.5/secalin 2 peptide complex on Ba/F3 cells (human; rye); assay: FACS
T10 construct: also called Ba/F3-HLA-DQ2.5/secalin 2 peptide

[11] = molecular target: T11, HLA-DQ2.5 on HLA-DQ2.5 positive PBMC-B cells (human, UniProt P01909 24-254; P01920 33-261); assay: FACS
T11 construct: also called DQ2.5 + PBMC; HLA-DQ2.5+PBMC B cell
T11 MHC II alpha: T3 MHC II alpha
T11 MHC II beta: T3 MHC II beta

[12] = molecular target: T1, HLA-DQ2.5/33mer gliadin peptide complex …; assay: cell-based or functional assay
[13] = molecular target: T12, recombinant HLA-DQ2.5/33mer gliadin peptide complex (human; wheat); assay: SPR, Ab captured, 37 C, pH 7.4
T12 construct: also called soluble HLA-DQ2.5/33mer gliadin peptide complex
T12 alpha: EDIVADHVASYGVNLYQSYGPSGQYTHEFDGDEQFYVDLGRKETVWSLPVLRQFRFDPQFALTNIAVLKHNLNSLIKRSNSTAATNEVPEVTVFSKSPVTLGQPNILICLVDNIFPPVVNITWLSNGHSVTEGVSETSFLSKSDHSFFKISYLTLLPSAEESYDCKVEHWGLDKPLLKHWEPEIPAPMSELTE
T12 beta: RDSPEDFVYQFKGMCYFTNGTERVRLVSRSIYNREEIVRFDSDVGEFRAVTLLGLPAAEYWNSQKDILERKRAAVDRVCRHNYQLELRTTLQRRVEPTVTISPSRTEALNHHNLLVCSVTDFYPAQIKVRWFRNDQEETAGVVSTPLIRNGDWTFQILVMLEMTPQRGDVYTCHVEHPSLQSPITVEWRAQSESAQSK
T12 peptide: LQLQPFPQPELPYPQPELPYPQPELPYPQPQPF

[14] = molecular target: T12, recombinant HLA-DQ2.5/33mer gliadin …; assay: SPR, Ab captured, 37 C, pH 7.4
[15] = molecular target: T12, recombinant HLA-DQ2.5/33mer gliadin …; assay: AlphaLISA neutralizing assay: biotinylated HLA-DQ2.5/33mer gliadin peptide complex on acceptor beads, biotinylated D2 TCR on donor beads; blocked ligand: D2 TCR (Example 12)
[16] = molecular target: T12, recombinant HLA-DQ2.5/33mer gliadin …; assay: AlphaLISA neutralizing assay: biotinylated HLA-DQ2.5/33mer gliadin peptide complex on acceptor beads, biotinylated D2 TCR on donor beads; blocked ligand: D2 TCR (Example 4.4)

Row | Binder | FIG. 30 FACS value (IC17=0, DQN0139bb=100) [1] | FIG. 30 FACS value (IC17=0, DQN0139bb=100) [2] | FIG. 30 FACS value (IC17=0, DQN0139bb=100) [3] | FIG. 30 FACS value (IC17=0, DQN0139bb=100) [4] | FIG. 30 FACS value (IC17=0, DQN0139bb=100) [5] | FIG. 30 FACS value (IC17=0, DQN0139bb=100) [6] | FIG. 30 FACS value (IC17=0, DQN0139bb=100) [7] | FIG. 30 FACS value (IC17=0, DQN0139bb=100) [8] | FIG. 30 FACS value (IC17=0, DQN0139bb=100) [9] | FIG. 30 FACS value (IC17=0, DQN0139bb=100) [10] | FIG. 30 FACS value (IC17=0, DQN0139bb=100) [11] | IC50 (read off the curve) [12] | Kd [13] | Kd [14] | IC50 (read off the curve) [15] | IC50 (read off the curve) [16]
1 | B1 | 108 | 1.2 | -0.1 | 93.5 | 81.3 | 85.1 | 75.6 | 62 | 77.2 | 68.7 | -0.1 | ~0.3 µg/mL | 7.88 nM |  |  | 
2 | B2 | 106 | 3.8 | 0 | 91.2 | 80.5 | 83 | 79.3 | 68.9 | 65.3 | 70.2 | 0 | ~0.3 µg/mL | 6.07 nM |  |  | 
3 | B3 | 65.9 | 1.2 | 0.4 | 46.4 | 16.5 | 45.3 | 2.8 | 36.6 | 5 | 3.3 | 0.8 |  | 5.72 nM | 6.29 nM | ~0.7 µg/mL | ~1 µg/mL
4 | B4 | 59.2 | 0.3 | 0 | 26.9 | 8.2 | 34.9 | 7.3 | 79.4 | 16.3 | 14.5 | 0.3 | ~0.2 µg/mL | 6.32 nM |  |  | 
5 | B5 | 73.5 | 28.7 | 3 | 32.6 | 20.9 | 34.5 | 7 | 42.6 | 49.6 | 48 | 4.3 |  | 11.4 nM | 13.7 nM |  | ~0.3 µg/mL
